Measurements taken from US20030186441A1 (MORPHOTEK, published 2003).

Target: T1, full length hMLH1 protein (human, UniProt P40692 2-756)
T1 construct: also called MLH1 (human)
T1 sequence: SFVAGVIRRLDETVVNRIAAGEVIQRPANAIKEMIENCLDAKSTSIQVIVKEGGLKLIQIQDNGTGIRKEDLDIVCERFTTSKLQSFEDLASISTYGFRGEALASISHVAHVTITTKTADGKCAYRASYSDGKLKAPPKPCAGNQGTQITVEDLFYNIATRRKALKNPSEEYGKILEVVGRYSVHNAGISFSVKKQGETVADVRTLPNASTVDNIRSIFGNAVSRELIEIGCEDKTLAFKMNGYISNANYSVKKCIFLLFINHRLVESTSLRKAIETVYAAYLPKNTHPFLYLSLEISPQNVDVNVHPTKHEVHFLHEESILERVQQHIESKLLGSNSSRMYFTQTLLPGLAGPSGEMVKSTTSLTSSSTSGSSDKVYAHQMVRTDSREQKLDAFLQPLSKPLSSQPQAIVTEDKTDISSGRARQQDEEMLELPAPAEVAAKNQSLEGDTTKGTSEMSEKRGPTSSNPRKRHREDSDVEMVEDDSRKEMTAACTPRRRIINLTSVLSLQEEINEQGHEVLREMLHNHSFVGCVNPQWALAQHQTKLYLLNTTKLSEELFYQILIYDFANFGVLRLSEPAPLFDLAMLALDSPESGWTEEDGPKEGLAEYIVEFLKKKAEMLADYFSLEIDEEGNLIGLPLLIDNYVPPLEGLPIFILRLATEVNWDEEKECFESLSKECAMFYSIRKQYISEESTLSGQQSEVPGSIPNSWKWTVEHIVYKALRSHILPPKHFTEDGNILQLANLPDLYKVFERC
Assay: co-immunoprecipitation of in vitro translated proteins with anti-hMLH1 mAb; converse experiment with N terminal hPMS2 antibody
Text: […]. […] Lane 6 contains a nonprogrammed reticulocyte lysate. In both panels A and B, autoradiographs of immunoprecipitated products are shown. When a 35S labelled, full-length hMLH1 protein (FIG. 3A, lane 5) was mixed with the unlabelled carboxyl terminal hPMS2 polypeptide, a monoclonal antibody (mAb) to the carboxyl terminus of hPMS2 efficiently immunoprecipitated the labeled hMLH1 protein (lane 1). No hMLH1 protein was precipitated in the absence of hPMS2 (lane 2). Conversely, when the 35S labelled carboxyl terminus of hPMS2 (lane 3) was incubated with unlabelled, full length hMLH1 protein, an anti hMLH1 mAb precipitated the hPMS2 polypeptide (lane 4). In the absence of the unlabelled hMLH1 protein, no hPMS2 protein was precipitated by this mAb (lane 6).
Immunoprecipitation. Immunoprecipitations were performed on in vitro translated proteins by mixing the translation reactions with 1 μg of the MLH1 specific monoclonal antibody (mAB) MLH14 (Oncogene Science, Inc.), a polyclonal antibody generated to codons 2-20 of hPMS2 described above, or a polyclonal antibody generated to codons 843-862 of hPMS2 (Santa Cruz Biotechnology, Inc.) in […] of EBC buffer (50 mM Tris, pH 7.5, 0.1 M NaCl, 0.5% NP40). […]

binding result: no binding
B1: hPMS2-134 (containing codons 1-134 of hPMS2) (other)
chain: MERAESSSTEPAKAIKPIDRKSVHQICSGQVVLSLSTAVKELVENSLDAGATNIDLKLKDYGVDLIEVSDNGCGVEEENFEGLTLKHHTSKIQEFADLTQVETFGFRGEALSSLCALSDVTISTCHASAKVGTR
